Experimental data published in US20220362357A1, “Synergistic Combinations of Amino Acid Depletion Agent Sensitizers (AADAS) and Amino Acid Depletion Agents (AADA), and Therapeutic Methods of Use Thereof” (STICHTING RADBOUD UNIVERSITAIR MEDISCH CENTRUM, priority 2018, published 2022).

B1: PEG-Asparaginase: E. coli-derived peg-conjugated ASNase, used in the in vivo studies (protein, UniProt P00805 23-348, looked up)
L-asparaginase 2: LPNITILATGGTIAGGGDSATKSNYTVGKVGVENLVNAVPQLKDIANVKGEQVVNIGSQDMNDNVWLTLAKKINTDCDKTDGFVITHGTDTMEETAYFLDLTVKCDKPVVMVGAMRPSTSMSADGPFNLYNAVVTAADKASANRGVLVVMNDTVLDGRDVTKTNTTDVATFKSVNYGPLGYIHNGKIDYQRTPARKHTSDTPFDVSKLNELPKVGIVYNYANASDLPAKALVDAGYDGIVSAGVGNGNLYKSVFDTLATAAKTGTAVVRSSRVPTGATTQDAEVDDAKYGFVASGTLNPQKARVLLQLALTQTKDPQQIQQIFNQY
modifications: PEG conjugate (pegaspargase)
B2: …®: recombinantly produced E. coli ASNase, NCBI Ref Seq WP_000394140.1, ATC Code L01XX02 (protein, UniProt P00805 23-348, looked up)
L-asparaginase 2: LPNITILATGGTIAGGGDSATKSNYTVGKVGVENLVNAVPQLKDIANVKGEQVVNIGSQDMNDNVWLTLAKKINTDCDKTDGFVITHGTDTMEETAYFLDLTVKCDKPVVMVGAMRPSTSMSADGPFNLYNAVVTAADKASANRGVLVVMNDTVLDGRDVTKTNTTDVATFKSVNYGPLGYIHNGKIDYQRTPARKHTSDTPFDVSKLNELPKVGIVYNYANASDLPAKALVDAGYDGIVSAGVGNGNLYKSVFDTLATAAKTGTAVVRSSRVPTGATTQDAEVDDAKYGFVASGTLNPQKARVLLQLALTQTKDPQQIQQIFNQY

Tests used:
[1] = system: Human Acute Lymphoblastic Leukemia blasts in NSG mice; details: for bodyweight: NSG mice, ibrutinib 25 mg/kg oral daily 9 days, ONCASPAR 300 IU/kg IV days 1, 4, 7
Description: Procedure. The experimental design is schematized in FIG. 7A. Briefly, thirty-two (32) NOD.Cg-Prkdcscid I2rgtm1Wjl/SzJ (“NSG”) mice were injected intrafemorally with 500,000 leukemic blasts (2 injections/mouse) (Human Acute Lymphoblastic Leukemia). […] During and after treatment, mice were weighed weekly, and their welfare was evaluated daily. Blood samples were taken weekly for assessment of the leukemia burden. Termination was predefined with a leukemia burden reaching 50% leukemic blasts in peripheral blood as measured by flow cytometry or euthanasia because of overt signs of discomfort due to disease.
The primary outcome of this experiment was event-free survival, where event was defined as […]. Differences in event-free survival were analyzed using a Kaplan-Meier plot and significance was tested using the log-rank test.

[2] = system: 30 cell lines covering a variety of cancer cell types; experiment: ApoTox-Glo Triplex Assay (viability, cytotoxicity, apoptosis), 3-4 days, panel; type: cell-based; details: in still other cases
Description: Two incubation times were tested. […] Ibrutinib was the AADAS as detailed above.
Cell culture conditions. Adherent tumor cells were grown as monolayer at 37° C. in a humidified atmosphere (5% CO2, 95% air). […] The cells were counted and their viability assessed by 0.25% trypan blue exclusion assay.
Cell plating for 3 to 4 day incubation.
Each compound was tested alone at 6 doses.
Experiments were performed in duplicate.
Two protocols of incubation were performed: overnight and over 3/4 days as indicated.
The assay was performed as recommended by the manufacturer. […] The assay was performed as recommended by the manufacturer. […] Apoptosis was measured in luminescence.

HBP-ALL cells = experiment: T-ALL cell line viability and cell death by amine exposure; type: cell-based, human; details: 3 or 7 days
LOUCY cells = experiment: as above; type: cell-based, human; details: 3 or 7 days

Molecule | bodyweight [1] | mice that reached the termination point (>50% leukemic blasts) after 10 weeks ([1]; weeks after transplantation) | leukemia development ([1]; human leukemic blasts in blood by flow cytometry) | resistance of the cells [2] | sensitivity, cell death by amine exposure (HBP-ALL cells) | sensitivity, cell death by amine exposure (LOUCY cells)
C=CC(=O)N1CCC[C@@H](n2nc(-c3ccc(Oc4ccccc4)cc3)c3c(N)ncnc32)C1 [ibrutinib, reference compound] | mild and transient drop in bodyweight | 4/7 | – | – | – | –
B1 | strong but transient weight loss | – | stronger delay in leukemia development | – | – | –
B2 | – | – | – | somewhat resistant | extremely sensitive | extremely sensitive
